These results are taken from patent publication US6355472B2, “Method for producing nucleoside-5′-phosphate ester” (Ajinomoto Co., Inc., priority 1996, dated 2002).

A short description of series [1]: Properties of the purified acid phosphatase. It counts as biochemical. The settings on record: for Temperature stability (stable up to): treatment at pH 7.0 for 30 minutes. As to the method:
The transphosphorylation activity was measured under the following condition using inosine as the substrate. The reaction was performed at pH 5.0 at 30° C. for 10 minutes in a reaction solution (1 ml) containing 40 μmol/ml of inosine, 100 μmol/ml of sodium pyrophosphate, 100 μmol/ml of sodium acetate buffer (pH 5.0), and an enzyme. The reaction was stopped by adding 200 μl of 2 N hydrochloric acid. After that, precipitates were removed by centrifugation. Then, 5′-inosinic acid produced by the transphosphorylation reaction was quantitatively measured. The amount of enzyme to produce 1 μmol of 5′-inosinic acid per 1 minute under this standard reaction condition was defined as 1 unit.
The phosphomonoesterase activity was measured under the following condition using 5′-inosinic acid as a substrate. The reaction was performed at 30° C. for 10 minutes in a reaction solution (1 ml) containing 10 μmol/ml of 5′-inosinic acid, 100 μmol/ml of MES/NaOH buffer (pH 6.0), and an enzyme. The reaction was stopped by adding 200 μl of 2 N hydrochloric acid. After that, precipitates were removed by centrifugation. Then, inosine produced by the hydrolytic reaction was quantitatively measured. An amount of enzyme to produce 1 μmol of inosine per 1 minute under this standard reaction condition was defined as 1 unit.

Series [2] is described as follows: 5′-inosinic acid production by purified enzyme sample at various pH. The class given is biochemical. The settings on record: enzyme 50 units/dl, pH 4.0, 30° C., 3 hours. As to the method: Sodium pyrophosphate (10 g/dl) and inosine (2 g/dl) were dissolved in sodium acetate buffers each having pH of 5.5, 5.0, 4.5, 4.0, and 3.5, to which the enzyme sample described above was added so that a concentration of 50 units/dl was obtained. The reaction mixture was incubated at 30° C. for 6 hours while maintaining each pH, and the amount of produced 5′-inosinic acid was measured along with passage of time. Produced inosinic acid contained only 5′-inosinic acid. Production of 2′-inosinic acid and 3′-inosinic acid by-products was not observed at all. The velocity of 5′-inosinic acid production was maximum at pH 5.0. However, the maximum accumulated amount of 5′-inosinic acid was higher at lower pH. The reaction condition at pH 4.0 was most efficient for production of 5′-inosinic acid, in which 5′-inosinic acid was produced and accumulated in an amount of 2.60 g/dl by performing the reaction for 3 hours.
Sodium pyrophosphate (15 g/dl) and inosine (3 g/dl) were dissolved in sodium acetate buffers each having pH of 5.5, 5.0, 4.5, 4.0, and 3.5, to which the enzyme sample described above was added so that a concentration of 50 units/dl was obtained. The reaction mixture was incubated at 30° C. for 6 hours while maintaining each pH, and the amount of produced 5′-inosinic acid was measured along with passage of time. Produced inosinic acid contained only 5′-inosinic acid. […]

Setting [3] is: phosphate ester hydrolytic reaction.

B1: Acid Phosphatase Derived from Morganella morganii: enzyme purified from cell-free extract of Morganella morganii NCIMB 10466 (SEQ ID NO: 4) (protein)
chain: AIPAGNDATTKPDLYYLKNEQAIDSLKLLPPPPEVGSIQFLNDQAMYEKGRMLRNTERGKQAQADADLAAGGVATAFSGAFGYPITEKDSPELYKLLTNMIEDAGDLATRSAKEHYMRIRPFAFYGTETCNTKDQKKLSTNGSYPSGHTSIGWATALVLAEVNPANQDAILERGYQLGQSRVICGYHWQSDVDAARIVGSAAVATLHSDPAFQAQLAKAKQEFAQKSQK
With B1, in series [1], the Optimum temperature entry was “about 35 °C”, the “phosphate ester hydrolytic activity (phosphomonoesterase activity) higher than the transphosphorylation activity” value is “not less than 20 times” and the “Temperature stability (stable up to)” value is “up to 30 °C”. In series [1] (setting [3]), the “Optimum pH” value is reported as 6.5. Further, the “Optimum pH” value in series [1] (transphosphorylation reaction) was 5.2. For the same molecule, in series [2] (sodium pyrophosphate 10 g/dl, inosine 2 g/dl), the “5′-inosinic acid produced and accumulated” value worked out at 2.60 g/dL.

B2: Acid Phosphatase Derived from Escherichia blattae: enzyme purified from cell-free extract of Escherichia blattae JCM 1650 (SEQ ID NO: 8) (protein)
chain: LALVATGNDTTTKPDLYYLKNSEAINSLALLPPPPAVGSIAFLNDQAMYEQGRLLRNTERGKLAAEDANLSSGGVANAFSGAFGSPITEKDAPALHKLLTNMIEDAGDLATRSAKDHYMRIRPFAFYGVSTCNTTEQDKLSKNGSYPSGHTSIGWATALVLAEINPQRQNEILKRGYELGQSRVICGYHWQSDVDAARVVGSAVVATLHTNPAFQQQLQKAKAEFAQHQKK
Turning to B2, in series [1], the Optimum temperature entry is “about 35 °C”, the “phosphate ester hydrolytic activity (phosphomonoesterase activity) higher than the transphosphorylation activity” value is “not less than 30 times” and the “Temperature stability (stable up to)” value is “up to 40 °C”. For the same molecule, in series [1] (setting [3]), the “Optimum pH” value amounted to 6.5. The “Optimum pH” value in series [1] (transphosphorylation reaction) is given as 5.2. In series [2] (sodium pyrophosphate 15 g/dl, inosine 3 g/dl), the “5′-inosinic acid produced and accumulated” value came to 1.56 g/dL.
